To fix the notation:
B1: LINE1-mini (parent)
chain: GGCAGAGCUCAACACAGCGUGGCAAAGUGGCUGUGGCUAGACUGCC

The variants in the series derive from B1. The experiment in a line: self-cleavage, relative activity (ratio to wild type); higher = more cleavage; in vitro, sequencing; the parent is a self-cleaving ribozyme.
In the case of G19C U20C, the self-cleavage is 0.61.
Regarding G19C U20A, the self-cleavage was determined as 0.3.
G19C U20G: the self-cleavage amounted to 0.4.
U20A G36U: the self-cleavage is 0.05.
Turning to U20A G36A, the self-cleavage stood at 0.26.
With U20A G36C the figure was 0.07; with G19C C37G, 0.02; with G19C C37U, 0.03.
Consider G19C C37A, for which the self-cleavage worked out at 0.04.
With U20C G33A, the self-cleavage was 0.1.
On to U20C G33C, for which the self-cleavage came to 0.07.
Regarding U20C G33U, the self-cleavage amounted to 0.14.
With U20C C31G the figure was 0.07.
With U20C C31U the figure was 0.39.
In the case of U20C C31A, the self-cleavage was 0.27.
Regarding G19C G21U, the self-cleavage was 0.47.
The value for G19C G21A was 0.51.
On to G19C G21C, for which the self-cleavage worked out at 0.27.
As to G19C G35A, the self-cleavage is 0.17.
Regarding G19C G35C, the self-cleavage stood at 0.17.
For the variant G19C G35U, the self-cleavage amounted to 0.07.
The value for U20A G30U was 0.93; that for U20A G30C was 0.68.
As to U20A G30A, the self-cleavage is 0.62.
With U20A G40A the figure was 0.1; with U20A G40C, 0.06.
Take U20A G40U: the self-cleavage is 0.08.
With U20C G36A the figure was 0.11; with U20C G36U, 0.15; with U20C G36C, 0.07.
Regarding U20A U28C, the self-cleavage worked out at 0.67.
With U20A U28A the figure was 0.55; with U20A U28G, 0.28; with G19C U43G, 0.02.
With G19C U43C, the self-cleavage amounted to 0.03.
For G19C U43A, the self-cleavage stood at 0.02.
With U20A C45U the figure was 1.4; with U20A C45A, 0.77; with U20A C45G, 0.21.
In the case of G19C G27C, the self-cleavage was found to be 0.61.
G19C G27U: the self-cleavage is 0.43.
With G19C G27A, the self-cleavage came to 0.54.
With G19C C46U the figure was 1.42; with G19C C46G, 0.23.
On to G19C C46A, for which the self-cleavage came to 0.52.
Regarding G19U A39C, the self-cleavage amounted to 0.06.
The value for G19U A39G was 0.06; that for G19U A39U was 0.58; that for G19C A25U was 0.26.
G19C A25G: the self-cleavage was 0.26.
In the case of G19C A25C, the self-cleavage was determined as 0.5.
For the variant G19C U38G, the self-cleavage worked out at 0.01.
As for G19C U38C, the self-cleavage came to 0.28.
With G19C U38A the figure was 0.05; with U20A A24U, 0.62; with U20A A24G, 0.68.
On to U20A A24C, for which the self-cleavage stood at 0.28.
Take G19A U34G: the self-cleavage was determined as 0.29.
For G19A U34C, the self-cleavage is 0.43.
Regarding G19A U34A, the self-cleavage was 0.1.
Turning to G19C G30A, the self-cleavage is 0.91.
Consider G19C G30U, for which the self-cleavage amounted to 0.54.
With G19C G30C, the self-cleavage is 1.
The value for U20A G29C was 0.55; that for U20A G29U was 0.45.
Regarding U20A G29A, the self-cleavage turned out to be 0.51.
The value for G19U U20A was 0.86; that for G19U U20G was 0.77; that for G19U U20C was 0.76.
For U20A G27A, the self-cleavage turned out to be 0.83.
The value for U20A G27U was 0.81; that for U20A G27C was 0.24; that for U20A G22A was 0.55.
Take U20A G22C: the self-cleavage was 0.38.
For the variant U20A G22U, the self-cleavage came out at 0.91.
On to G19U G44A, for which the self-cleavage was determined as 0.27.
The value for G19U G44C was 0.31; that for G19U G44U was 0.28; that for U20A C42A was 0.11.
As to U20A C42G, the self-cleavage came out at 0.04.
The value for U20A C42U was 0.12; that for G19A U38G was 0.02.
For G19A U38C, the self-cleavage is 1.09.
For the variant G19A U38A, the self-cleavage came out at 0.82.
On to G19C G33A, for which the self-cleavage amounted to 0.15.
Take G19C G33U: the self-cleavage came to 0.34.
With G19C G33C, the self-cleavage was found to be 0.12.
U20A G21C: the self-cleavage turned out to be 0.39.
For U20A G21U, the self-cleavage was determined as 0.69.
On to U20A G21A, for which the self-cleavage is 0.76.
With G19U C45A the figure was 0.43; with G19U C45G, 0.82; with G19U C45U, 1.38.
For the variant G19C A26U, the self-cleavage turned out to be 0.37.
The value for G19C A26G was 0.27; that for G19C A26C was 0.68; that for U20C U34A was 0.12.
The value for U20C U34G was 0.22.
Consider U20C U34C, for which the self-cleavage was 0.18.
Consider U20C A25C, for which the self-cleavage is 0.75.
Turning to U20C A25U, the self-cleavage came to 1.02.
For U20C A25G, the self-cleavage worked out at 0.53.
In the case of G19U A26C, the self-cleavage was 0.61.
With G19U A26U the figure was 0.56; with G19U C31U, 0.44.
For G19U C31A, the self-cleavage came to 0.37.
With G19U C31G the figure was 0.05; with U20C G35U, 0.1; with U20C G35C, 0.03.
With U20C G35A, the self-cleavage was 0.1.
The value for U20A U32G was 0.08; that for U20A U32A was 0.06; that for U20A U32C was 0.09.
As to U20A G44C, the self-cleavage was determined as 0.16.
The value for U20A G44U was 0.2.
With U20A G44A the figure was 0.51.
With U20C U28C, the self-cleavage is 0.54.
On to U20C U28A, for which the self-cleavage is 0.93.
For U20C U28G, the self-cleavage turned out to be 0.93.
G19U G36U: the self-cleavage worked out at 0.04.
As for G19U G36A, the self-cleavage came out at 0.1.
As for G19U G36C, the self-cleavage was 0.1.
For U20C G40C, the self-cleavage stood at 0.06.
Consider U20C G40U, for which the self-cleavage came to 0.1.
With U20C G40A the figure was 0.09.
Consider U20A U43C, for which the self-cleavage came out at 0.13.
With U20A U43A the figure was 0.08; with G19U G33C, 0.07.
In the case of G19U G33U, the self-cleavage amounted to 0.13.
Turning to G19U G33A, the self-cleavage worked out at 0.18.
On to G19U U38C, for which the self-cleavage was found to be 0.3.
G19U U38G: the self-cleavage was 0.02.
With G19U U38A the figure was 0.38; with U20C G21C, 0.39; with U20C G21A, 0.8.
Consider U20C G21U, for which the self-cleavage is 0.45.
With U20C G44U the figure was 0.14; with U20C G44C, 0.09.
With U20C G44A, the self-cleavage turned out to be 0.12.
In the case of U20C A24C, the self-cleavage was 0.31.
Consider U20C A24G, for which the self-cleavage is 0.44.
The value for U20C A24U was 0.67.
Consider G19U C46U, for which the self-cleavage was determined as 0.86.
As for G19U C46A, the self-cleavage was 1.08.
With G19U C46G the figure was 0.71; with G19U G21U, 0.58.
Consider G19U G21C, for which the self-cleavage came to 0.81.
Take G19U G21A: the self-cleavage was found to be 0.64.
Regarding G19C C45U, the self-cleavage came to 0.79.
The value for G19C C45G was 0.17; that for G19C C45A was 0.47; that for U20A G33C was 0.04.
On to U20A G33A, for which the self-cleavage was 0.13.
Regarding U20A G33U, the self-cleavage was 0.07.
With U20A A39C, the self-cleavage amounted to 0.08.
U20A A39G: the self-cleavage worked out at 0.06.
In the case of U20A A39U, the self-cleavage was 0.62.
On to U20C C45U, for which the self-cleavage is 1.12.
Consider U20C C45A, for which the self-cleavage was 0.34.
The value for U20C C45G was 0.3.
As for G19A U28C, the self-cleavage amounted to 0.51.
Consider G19A U28G, for which the self-cleavage was 1.04.
For the variant G19A U28A, the self-cleavage is 1.57.
As to U20C U32C, the self-cleavage was 0.05.
For the variant U20C U32A, the self-cleavage turned out to be 0.05.
On to U20C U32G, for which the self-cleavage was 0.04.
On to G19C U34G, for which the self-cleavage was 0.14.

(Values after the RNAGym collection of RNA variant scans (doi:10.7554/elife.90254).)
